B1: 14-3-3ζ: 14-3-3 polypeptide ζ isoform, overexpressed from expression vector (protein, UniProt P63104 1-245, looked up)
14-3-3 protein zeta/delta: MDKNELVQKAKLAEQAERYDDMAACMKSVTEQGAELSNEERNLLSVAYKNVVGARRSSWRVVSSIEQKTEGAEKKQQMAREYREKIETELRDICNDVLSLLEKFLIPNASQAESKVFYLKMKGDYYRYLAEVAAGDDKKGIVDQSQQAYQEAFEISKKEMQPTHPIRLGLALNFSVFYYEILNSPEKACSLAKTAFDEAIAELDTLSEESYKDSTLIMQLLRDNLTLWTSDTQGDEAEAGEGGEN
B2: 14-3-3θ: 14-3-3 polypeptide θ isoform, overexpressed from V5/His-tagged pcDNA3.1 vector (or as transgene in C. elegans) (protein, UniProt P27348 1-245, looked up)
14-3-3 protein theta: MEKTELIQKAKLAEQAERYDDMATCMKAVTEQGAELSNEERNLLSVAYKNVVGGRRSAWRVISSIEQKTDTSDKKLQLIKDYREKVESELRSICTTVLELLDKYLIANATNPESKVFYLKMKGDYFRYLAEVACGDDRKQTIDNSQGAYQEAFDISKKEMQPTHPIRLGLALNFSVFYYEILNNPELACTLAKTAFDEAIAELDTLNEDSYKDSTLIMQLLRDNLTLWTSDSAGEECDAAEGAEN
modifications: V5/His tag

Assays:
H4 cells = assay: α-syn toxicity assay, adenylate kinase released into the media; type: cell-based; conditions: co-transfected with wildtype α-syn; 24 hours after transfection; vs empty vector
Procedure: Briefly, H4 cells were transfected with wildtype α-syn and each of the 14-3-3 polypeptide isoforms or empty vector controls as discussed above. Twenty-four hours after transfection, cell death was assayed by adenylate kinase activity in the media (n=4, *p<0.05, **p<0.01, ***p<0.001).
Primers against each of the human 14-3-3 isoforms were designed using Primer3. Primers against 14-3-3β (NM_018753) were 5′ […] 3′ (forward; SEQ ID NO. 9) and 5′ […] 3′ (reverse; SEQ ID NO. 10). Primers against 14-3-3ε (NM_009536) were 5′ […] 3′ (forward; SEQ ID NO. 11) and 5′ […] 3′ (reverse; SEQ ID NO. 12). Primers against 14-3-3γ (NM_018871) were 5′ […] 3′ (forward; SEQ ID NO. 13) and 5′ […] 3′ (reverse; SEQ ID NO. 14). Primers against 14-3-3η (NM_011738) were 5′ […] 3′ (forward; SEQ ID NO. 15) and 5′ […] 3′ (reverse; SEQ ID NO. 16). Primers against 14-3-3θ (NM_011739) were 5′ […] 3′ (forward; SEQ ID NO. 17) and 5′ […] 3′ (reverse; SEQ ID NO. 18). Primers against 14-3-3σ (NM_018754) were 5′ […] 3′ (forward; SEQ ID NO. 19) and 5′ […] 3′ (reverse; SEQ ID NO. 20). Primers against 14-3-3ζ(NM_011740) were 5′ […] 3′ (forward; SEQ ID NO. 21) and 5′ […] 3′ (reverse; SEQ ID NO. 22). Primers against GAPDH were 5′ tggtgaagcaggeatctga 3′ (forward; SEQ ID NO. 23) and 5′ […] […] All cells stained for α-syn were scored as positive or negative for α-syn aggregates, with the rater blind to experimental condition. • α-syn toxicity assay H4 cells were transfected with α-syn and either empty vector control or a 14-3-3 isoform using Superfect transfection reagent (Qiagen). 24 hours after transfection, toxicity was measured by the amount of adenylate kinase released into the media using the ToxiLight™ kit (Cambrex). • Creation of stable cell lines Each 14-3-3 isoform was subcloned into the mammalian expression vector mcDNA3.1/V5-His (Invitrogen). […] Protein concentrations of supernatants were determined by the bicinchoninic acid assay (BCA; Pierce, Rockford, Ill.). […]

[1] = tested on: Transgenic C. elegans worms that overexpress human wildtype α-syn; assay: Dopaminergic neuron loss in α-syn transgenic worm model; type: in vivo; conditions: human 14-3-3θ overexpressed along with α-syn
Text: FIG. 10. Overexpression of 14-3-3θ protects against dopaminergic cell loss in the α-syn transgenic C. elegans worm model. Double transgenic worms were created in which the 14-3-3θ isoform was overexpressed along with α-syn.
We turned to the C. elegans model of PD, in which human wildtype α-syn is overexpressed. […] Double transgenic worms were created in which the 14-3-3θ isoform was overexpressed along with α-syn. […] In contrast, 18.9% of worms that overexpressed human 14-3-3θ along with α-syn had all six dopaminergic neurons at seven days (FIG. 10; p<0.001 compared to α-syn worms). 12.9% of worms had the full anterior complement of dopaminergic neurons at 10 days (FIG. 10; p<0.00001).

naïve M17 cells = assay: Rotenone toxicity after transient transfection, scoring of apoptotic nuclei; type: cell-based, human; conditions: rotenone 0, 0.2 or 1 μM for 24 hours, vs control transfection
Procedure: FIGS. 6A-D show M17 cells overexpressing 14-3-3θ are resistant to rotenone treatment. Cell lines stably-transfected with either 14-3-3θ or empty vector were treated with varying concentrations of rotenone (0-25 μM) for 24 hours (FIG. 6A), 30 hours (FIG. 6B), or 48 hours (FIG. 6C). Cell death was assayed by LDH release into the culture media. LDH release into media was normalized to total LDH release for each well. The 14-3-3θ-overexpressing line was more resistant to rotenone in a dose-dependent manner compared to control stable cells at all time points tested. […] Rater was blind to experimental condition. n=8 for each experimental condition. *p<0.05, ***p<0.001 (Bonferroni's multiple comparison test).
The effects of 14-3-3θ overexpression on rotenone toxicity was also examined by transient transfection of this isoform into naïve M17 cells. Briefly, M17 cells were transfected with V5-tagged 14-3-3θ isoform or enhanced yellow fluorescent protein (EYFP) (control) and were treated with rotenone for 24 hours at 0, 0.2, or 1 μM rotenone. Because of the relatively low rates of transfection, after the treatment period cells were fixed and stained against V5 (or GFP in the case of control), followed by Hoechsht 33342 staining. With the rater blind to experimental condition, the nuclei of cells that stained for V5 or GFP were scored as normal or apoptotic.

Molecule	effect on α-syn dependent cell death (adenylate kinase activity in the media) (H4 cells)	worms with the full anterior complement of dopaminergic neurons ([1]; 10 days) [%]	worms with all six anterior dopaminergic neurons present ([1]; seven days) [%]	cell death (apoptotic nuclei) in response to rotenone treatment (naïve M17 cells)
B1	protective effects	–	–	–
B2	protective effects	12.9	18.9	decreased cell death

Source: patent US7919262B2, “14-3-3 proteins for diagnosis of Parkinson's disease” (The UAB Research Foundation, priority 2007, dated 2011)
